{"source": "patent US20140274790A1", "binders": {"B1": {"name": "GFc-C35-3/15 (T5A, Y6W, T7H, N8R, N10E) (peptide)", "peptide": "DCAWHRGELVWCT"}, "B2": {"name": "C35A (G1S, H17Y) (peptide)", "peptide": "SPDCAYHRGELVWCTFY"}, "B3": {"name": "C35A (D3R, T15S) (peptide)", "peptide": "GPRCAYHRGELVWCSFH"}, "B4": {"name": "GFc-C35-3/15 (N10Q) (peptide)", "peptide": "DCTYTNGQLVWCT"}, "B5": {"name": "GFc-C35-3/15 (T7R) (peptide)", "peptide": "DCTYRNGNLVWCT"}, "B6": {"name": "GFc-C35-3/15 (T5A) (peptide)", "peptide": "DCAYTNGNLVWCT"}, "B7": {"name": "C35A (P2D, H17Y) (peptide)", "peptide": "SDDCAYHRGELVWCTFY", "modifications": "not fully specified; cysteine pairing not given here"}, "B8": {"name": "GFc-C35-3/15 (T7S) (peptide)", "peptide": "DCTYSNGNLVWCT"}, "B9": {"name": "GFc-C35-3/15 (T7H, N8R, Y6W) (peptide)", "peptide": "DCTWHRGNLVWCT"}, "B10": {"name": "GFc-C35-3/15 (D3R, T5A, T7H, N8R, N10E, T15S) (peptide)", "peptide": "RCAYHRGELVWCS"}, "B11": {"name": "GFc-C35-3/15 (N10D) (peptide)", "peptide": "DCTYTNGDLVWCT"}, "B12": {"name": "GFc-C35-3/15 (T7H, N8R, V12I) (peptide)", "peptide": "DCTYHRGNLIWCT"}, "B13": {"name": "C35A (P2D) (peptide)", "peptide": "GDDCAYHRGELVWCTFH"}, "B14": {"name": "GFc-C35-3/15 (N8L) (peptide)", "peptide": "DCTYTLGNLVWCT"}, "B15": {"name": "N-terminally PEGylated C35A-3/15 (NH2-PEG4-…-NH2) (peptide)", "peptide": "{NH2‑PEG4}-DCAYHRGELVWCT-NH2", "modifications": "not fully specified (bridges); printed as NH2-PEG4-DCAYHRGELVWCT-NH2; cysteine pairing not given here; also: coupled through PEG4 amine to HiTrap NHS-activated HP column"}, "B16": {"name": "GFc-C35-3/15 (T5A, T7H, N8R, N10E) (peptide)", "peptide": "DCAYHRGELVWCT", "modifications": "not fully specified (bridges); cysteine pairing not given here"}, "B17": {"name": "GFc-C35-3/15 (T5S) (peptide)", "peptide": "DCSYTNGNLVWCT"}, "B18": {"name": "C35A (G1S) (peptide)", "peptide": "SPDCAYHRGELVWCTFH"}, "B19": {"name": "GFc-C35-3/15 (T15S) (peptide)", "peptide": "DCTYTNGNLVWCS"}, "B20": {"name": "GFc-C35-3/15 (T7H, N8R) (peptide)", "peptide": "DCTYHRGNLVWCT"}, "B21": {"name": "GFc-C35-2/16 (peptide)", "peptide": "PDCTYTNGNLVWCTF"}, "B22": {"name": "GFc-C35-3/15 (T7H) (peptide)", "peptide": "DCTYHNGNLVWCT"}, "B23": {"name": "C35A (H17Y) (peptide)", "peptide": "GPDCAYHRGELVWCTFY"}, "B24": {"name": "GFc-C35-3/15 (L11M) (peptide)", "peptide": "DCTYTNGNMVWCT"}, "B25": {"name": "GFc-C35 (peptide)", "peptide": "GPDCTYTNGNLVWCTFH", "modifications": "not fully specified (bridges); cysteine pairing not given here"}, "B26": {"name": "GFc-C35-3/15 (Y6F) (peptide)", "peptide": "DCTFTNGNLVWCT"}, "B27": {"name": "GFc-C35-3/15 (N10R) (peptide)", "peptide": "DCTYTNGRLVWCT"}, "B28": {"name": "GFc-C35-3/15 (T7H, N8R, T5A) (peptide)", "peptide": "DCAYHRGNLVWCT"}, "B29": {"name": "C35A (T15S) (peptide)", "peptide": "GPDCAYHRGELVWCSFH"}, "B30": {"name": "GFc-C35-3/15 (V12I) (peptide)", "peptide": "DCTYTNGNLIWCT"}, "B31": {"name": "GFc-C35-3/15 (Y6W) (peptide)", "peptide": "DCTWTNGNLVWCT"}, "B32": {"name": "GFc-C35-3/15 (D3R) (peptide)", "peptide": "RCTYTNGNLVWCT"}, "B33": {"name": "GFc-C35-3/15 (peptide)", "peptide": "DCTYTNGNLVWCT"}, "B34": {"name": "C35A (F16H) (peptide)", "peptide": "GPDCAYHRGELVWCTHH"}, "B35": {"name": "GFc-C35-3/15 (T7H, N8R, N10E) (peptide)", "peptide": "DCTYHRGELVWCT"}, "B36": {"name": "GFc-C35-3/15 (N10E) (peptide)", "peptide": "DCTYTNGELVWCT"}, "B37": {"name": "GFc-C35-3/15 (N8R) (peptide)", "peptide": "DCTYTRGNLVWCT"}, "B38": {"name": "C35A (peptide)", "peptide": "GPDCAYHRGELVWCTFH"}, "B39": {"name": "C35A (D3S) (peptide)", "peptide": "GPSCAYHRGELVWCTFH"}}, "key": {"[1]": {"target": "human IgG (human)", "experiment": "SPR sensorgram analysis"}, "[2]": {"target": "human IgG (human)", "experiment": "SPR, synthetic peptide"}, "[3]": {"target": "human IgG (human)", "experiment": "SPR, synthetic peptide on human IgG"}, "[4]": {"target": "human IgG (human)", "experiment": "affinity column with 1.2 µmol immobilized peptide, 1 mL human serum applied, elution at pH 2.5, absorbance"}}, "note": "Ends that are not written are not given here. NH2‑PEG4 = N-terminal amino-PEG4 group (N-terminal PEGylation)", "data": [{"binder": "B1", "values": [{"measurement": "Kd", "setting": "[1]", "result": 0.257, "unit": "µM"}, {"measurement": "koff", "setting": "[1]", "result": 0.014, "unit": "s⁻¹"}, {"measurement": "kon", "setting": "[1]", "result": 54000, "unit": "M⁻¹ s⁻¹"}, {"measurement": "ratio of ka against GFc-C35-3/15 (T5A, T7H, N8R, N10E)", "setting": "[1]", "result": "< 0.125", "unit": "fold"}, {"measurement": "ratio of kd against GFc-C35-3/15 (T5A, T7H, N8R, N10E)", "setting": "[1]", "result": 0.5, "unit": "fold"}, {"measurement": "Kd", "setting": "[2]", "result": 0.26, "unit": "µM"}]}, {"binder": "B2", "values": [{"measurement": "Kd", "setting": "[3]", "result": 0.011, "unit": "µM"}]}, {"binder": "B3", "values": [{"measurement": "Kd", "setting": "[2]", "result": 0.042, "unit": "µM"}, {"measurement": "ratio of Kd against C35A-3/15 (D3R, T15S)", "setting": "[2]", "result": 0.333, "unit": "fold"}]}, {"binder": "B4", "values": [{"measurement": "Kd", "setting": "[2]", "result": 160, "unit": "µM"}]}, {"binder": "B5", "values": [{"measurement": "Kd", "setting": "[2]", "result": 83, "unit": "µM"}]}, {"binder": "B6", "values": [{"measurement": "Kd", "setting": "[2]", "result": 61, "unit": "µM"}]}, {"binder": "B7", "values": [{"measurement": "Kd", "setting": "[3]", "result": 0.013, "unit": "µM"}]}, {"binder": "B8", "values": [{"measurement": "Kd", "setting": "[2]", "result": 26, "unit": "µM"}]}, {"binder": "B9", "values": [{"measurement": "Kd", "setting": "[2]", "result": 2, "unit": "µM"}]}, {"binder": "B10", "values": [{"measurement": "Kd", "setting": "[2]", "result": 0.147, "unit": "µM"}]}, {"binder": "B11", "values": [{"measurement": "Kd", "setting": "[2]", "result": 80, "unit": "µM"}]}, {"binder": "B12", "values": [{"measurement": "Kd", "setting": "[2]", "result": 4.8, "unit": "µM"}]}, {"binder": "B13", "values": [{"measurement": "Kd", "setting": "[3]", "result": 0.0133, "unit": "µM"}]}, {"binder": "B14", "values": [{"measurement": "Kd", "setting": "[2]", "result": 260, "unit": "µM"}]}, {"binder": "B15", "values": [{"measurement": "protein yield of the eluted fraction D", "setting": "[4]", "result": 10.4, "unit": "mg"}]}, {"binder": "B16", "values": [{"measurement": "koff", "setting": "[1]", "result": 0.025, "unit": "s⁻¹"}, {"measurement": "kon", "setting": "[1]", "result": 460000, "unit": "M⁻¹ s⁻¹"}, {"measurement": "ratio of Kd against GFc-C35-3/15", "setting": "[1]", "result": 0.0417, "unit": "fold"}, {"measurement": "Kd", "setting": "[2]", "result": 0.054, "unit": "µM"}, {"measurement": "fold higher affinity than GFc-C35-3/15", "setting": "[2]", "result": 2400, "unit": "fold"}]}, {"binder": "B17", "values": [{"measurement": "Kd", "setting": "[2]", "result": 120, "unit": "µM"}]}, {"binder": "B18", "values": [{"measurement": "Kd", "setting": "[3]", "result": 0.0093, "unit": "µM"}]}, {"binder": "B19", "values": [{"measurement": "Kd", "setting": "[2]", "result": 34, "unit": "µM"}, {"measurement": "ratio of Kd against GFc-C35-3/15", "setting": "[2]", "result": 0.25, "unit": "fold"}]}, {"binder": "B20", "values": [{"measurement": "Kd", "setting": "[2]", "result": 1.1, "unit": "µM"}]}, {"binder": "B21", "values": [{"measurement": "Kd", "setting": "[2]", "result": 25, "unit": "µM"}]}, {"binder": "B22", "values": [{"measurement": "Kd", "setting": "[2]", "result": 3, "unit": "µM"}, {"measurement": "fold increase of affinity against GFc-C35-3/15", "setting": "[2]", "result": 50, "unit": "fold"}]}, {"binder": "B23", "values": [{"measurement": "Kd", "setting": "[3]", "result": 0.012, "unit": "µM"}]}, {"binder": "B24", "values": [{"measurement": "Kd", "setting": "[2]", "result": 280, "unit": "µM"}, {"measurement": "ratio of Kd against GFc-C35-3/15", "setting": "[2]", "result": 2, "unit": "fold"}]}, {"binder": "B25", "values": [{"measurement": "Kd", "setting": "[2]", "result": 14, "unit": "µM"}]}, {"binder": "B26", "values": [{"measurement": "Kd", "setting": "[2]", "result": 2100, "unit": "µM"}]}, {"binder": "B27", "values": [{"measurement": "Kd", "setting": "[2]", "result": 42, "unit": "µM"}]}, {"binder": "B28", "values": [{"measurement": "Kd", "setting": "[2]", "result": 0.25, "unit": "µM"}]}, {"binder": "B29", "values": [{"measurement": "Kd", "setting": "[3]", "result": 0.0144, "unit": "µM"}]}, {"binder": "B30", "values": [{"measurement": "Kd", "setting": "[2]", "result": 12, "unit": "µM"}, {"measurement": "ratio of Kd against GFc-C35-3/15", "setting": "[2]", "result": 0.1, "unit": "fold"}]}, {"binder": "B31", "values": [{"measurement": "Kd", "setting": "[2]", "result": 50, "unit": "µM"}]}, {"binder": "B32", "values": [{"measurement": "Kd", "setting": "[2]", "result": 69, "unit": "µM"}]}, {"binder": "B33", "values": [{"measurement": "Kd", "setting": "[2]", "result": 130, "unit": "µM"}]}, {"binder": "B34", "values": [{"measurement": "Kd", "setting": "[3]", "result": 0.0114, "unit": "µM"}]}, {"binder": "B35", "values": [{"measurement": "Kd", "setting": "[2]", "result": 0.27, "unit": "µM"}]}, {"binder": "B36", "values": [{"measurement": "Kd", "setting": "[2]", "result": 26, "unit": "µM"}]}, {"binder": "B37", "values": [{"measurement": "Kd", "setting": "[2]", "result": 8, "unit": "µM"}, {"measurement": "fold decrease of Kd against GFc-C35-3/15", "setting": "[2]", "result": 18, "unit": "fold"}]}, {"binder": "B38", "values": [{"measurement": "Kd", "setting": "[2]", "result": 0.009, "unit": "µM"}, {"measurement": "ratio of Kd against C35A-3/15", "setting": "[2]", "result": 0.2, "unit": "fold"}]}, {"binder": "B39", "values": [{"measurement": "Kd", "setting": "[3]", "result": 0.0285, "unit": "µM"}]}]}
